The Kd is the free concentration of one partner at which half of the binding sites on the other are occupied at equilibrium, for simple one-to-one binding. The low end stands for higher affinity, the high end for lower affinity.

Where no end group is shown, it is not given here.

This is an account of results in patent US20240255522A1 (published 2024).

For experiment [1], the target named is HLA-DRB1*01:01 MHCII molecule (human). Kind of experiment: saturation binding ELISA; pH 5; second sample.
For experiment [2], the target named is HLA-DRB1*08:01 MHCII molecule (human). The experiment is described as follows: saturation binding ELISA; pH 5.
In experiment [3] the target is HLA-DRB1*09:01 MHCII molecule (human). The experiment is described as follows: saturation binding ELISA; pH 5.
For experiment [4], the target named is HLA-DRB1*04:01 MHCII molecule (human). The experiment is described as follows: saturation binding ELISA; pH 5. On the technique in general: ELISA stands for enzyme-linked immunosorbent assay.
The target in experiment [5] is HLA-DRB1*01:01 MHCII molecule (human). Kind of experiment: saturation binding ELISA; pH 5.
Experiment [6] has as its target HLA-DRB1*11:01 MHCII molecule (human). The experiment is described as follows: saturation binding ELISA; pH 5.
The target in experiment [7] is HLA-DRB1*15:01 MHCII molecule (human). Kind of experiment: saturation binding ELISA; pH 5.
Experiment [8] concerns the target HLA-DRB1*08:01 MHCII molecule (human). The experiment is described as follows: saturation binding ELISA.
Experiment [9] addresses HLA-DRB1*09:01 MHCII molecule (human). The experiment is described as follows: saturation binding ELISA.
The target of experiment [10] is HLA-DRB1*04:01 MHCII molecule (human). The experiment is described as follows: saturation binding ELISA.
Experiment [11] addresses HLA-DRB1*01:01 MHCII molecule (human). Kind of experiment: saturation binding ELISA.
The target of experiment [12] is HLA-DRB1*11:01 MHCII molecule (human). Kind of experiment: saturation binding ELISA.
In experiment [13] the target is HLA-DRB1*15:01 MHCII molecule (human). The experiment is described as follows: saturation binding ELISA.

B1: biotinylated high affinity huCLIP (peptide)
peptide: PVSKMRMATPLLMQA
modifications: also: biotinylated, position not given here
Regarding B1, the equilibrium dissociation constant (Kd) in experiment [1] was 8.7 nM; in experiment [2] it was 16.8 nM; in [3] it was 380 nM; in experiment [4], 200 nM; in experiment [5], 7.1 nM; in experiment [6], 30.9 nM. For the same molecule, the Kd in experiment [7] came out at 87.9 nM; in [8], 14.4 nM; in experiment [9], 510 nM; in experiment [10], 183 nM; in experiment [11], 6.09 nM; in experiment [12], 24.5 nM. Besides, the dissociation constant (Kd) in [13] was determined as 109 nM.
